Data published in publication PMC2953525, “Subtle Alterations in PCNA-Partner Interactions Severely Impair DNA Replication and Repair” (PLoS Biology, 2010).

Experiments:
pol30-Rad30E9 = molecular target: T1, pol30-Rad30E9 (yeast, UniProt P15873 1-258, IDCL DIDADFLKIEEL to DNDWDFLKIDEL); experiment: two-hybrid; quantitative Y2H: generation time of the YRG2 strains in liquid SC-Leu-Trp-His, given relative to cells expressing WT PCNA; average of at least 3 experiments; settings: partners not purified
T1 construct: PCNA (POL30), yeast; also called Pol30-Rad30E9p; source: yeast two-hybrid fusion (pAD-GAL4, strain YRG2)
T1 sequence: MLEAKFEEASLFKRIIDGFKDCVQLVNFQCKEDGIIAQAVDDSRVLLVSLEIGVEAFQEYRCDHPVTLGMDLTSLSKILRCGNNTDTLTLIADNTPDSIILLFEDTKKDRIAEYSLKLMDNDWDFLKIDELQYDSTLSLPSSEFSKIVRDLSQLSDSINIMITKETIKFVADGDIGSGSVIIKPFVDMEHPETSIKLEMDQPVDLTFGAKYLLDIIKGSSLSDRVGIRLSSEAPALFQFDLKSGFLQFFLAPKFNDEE

pol30-Rad30E2 = molecular target: T2, pol30-Rad30E2 (yeast, UniProt P15873 1-258, IDCL DIDADFLKIEEL to DDDWDFLKILEL); experiment: as above; settings: partners not purified
T2 construct: PCNA (POL30), yeast; source: yeast two-hybrid fusion (pAD-GAL4, strain YRG2)
T2 sequence: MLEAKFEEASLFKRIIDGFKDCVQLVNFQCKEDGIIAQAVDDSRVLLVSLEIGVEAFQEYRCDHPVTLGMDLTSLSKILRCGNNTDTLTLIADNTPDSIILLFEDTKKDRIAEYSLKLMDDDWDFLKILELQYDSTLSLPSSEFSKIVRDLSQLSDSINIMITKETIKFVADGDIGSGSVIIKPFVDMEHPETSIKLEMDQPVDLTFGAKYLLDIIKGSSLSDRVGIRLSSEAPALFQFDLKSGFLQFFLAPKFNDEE

pol30-Rad27L2 = molecular target: T3, pol30-Rad27L2 (yeast, UniProt P15873 1-258, IDCL DIDADFLKIEEL to D––VDTLKITEL); experiment: as above; settings: partners not purified
T3 construct: PCNA (POL30), yeast; two residues after the first aspartic acid of the IDCL are deleted; source: yeast two-hybrid fusion (pAD-GAL4, strain YRG2)
T3 sequence: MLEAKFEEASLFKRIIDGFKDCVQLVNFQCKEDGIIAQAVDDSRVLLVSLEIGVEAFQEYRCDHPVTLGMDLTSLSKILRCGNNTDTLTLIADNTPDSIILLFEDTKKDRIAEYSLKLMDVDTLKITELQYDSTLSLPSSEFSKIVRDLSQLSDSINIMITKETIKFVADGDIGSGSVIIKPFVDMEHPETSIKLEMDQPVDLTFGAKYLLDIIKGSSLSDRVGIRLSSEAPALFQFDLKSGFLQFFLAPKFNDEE

pol30-Rad27E31 = molecular target: T4, pol30-Rad27E31 (yeast, UniProt P15873 1-258, IDCL DIDADFLKIEEL to DGDYDVLKIREL); experiment: as above; settings: partners not purified
T4 construct: PCNA (POL30), yeast; source: yeast two-hybrid fusion (pAD-GAL4, strain YRG2)
T4 sequence: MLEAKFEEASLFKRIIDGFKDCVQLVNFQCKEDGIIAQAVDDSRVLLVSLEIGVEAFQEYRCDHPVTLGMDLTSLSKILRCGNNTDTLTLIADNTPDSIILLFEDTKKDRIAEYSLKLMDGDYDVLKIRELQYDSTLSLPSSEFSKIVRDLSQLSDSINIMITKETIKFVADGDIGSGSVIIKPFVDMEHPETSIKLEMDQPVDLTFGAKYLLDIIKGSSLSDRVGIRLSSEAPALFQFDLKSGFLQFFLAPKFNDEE

PCNA-Rad30 complex = experiment: ELISA for PCNA-partner complexes extracted from yeast cells; format: binding; settings: ELISA of yeast extracts, GFP signal normalized to immobilized PCNA signal; averages of at least 5 independent repeats
From the text: (§1) To examine whether increased PCNA-partner interaction affinities result in increased PCNA-partner complex formation in vivo in pol30 mutant strains, we analyzed the levels of these complexes extracted from yeast cells. We used strains expressing the pol30 mutants as a sole source of PCNA in the cell under the control of the native POL30 promoter (see below). We immobilized PCNA from the crude yeast extracts onto ELISA plates and analyzed the amount of bound partner, relative to the amount of total PCNA immobilized on the plate (Figure 4).
(§2) Figure 4 Increased levels of in vivo PCNA-partner complex formation in the pol30-Rad30E2 or the pol30-Rad27E6 mutant strains, relative to the POL30 strain. (A). ELISA experimental set-up for the detection of PCNA-partner complexes extracted directly from WT and mutant PCNA strains. The assay is based on the immobilization of PCNA-partner complex using anti-PCNA antibody-coated ELISA plates. Detection of complex levels is performed using antibodies against the GFP fused to the C-terminal of the PCNA partner. […]
(§3) Yeast cell extracts were generated from 0.5 L of logarithmic cultures using conventional methods. […] Following centrifugation, cell extracts were collected and protein concentration was determined by the BCA method. […] PCNA-partner complex levels were calculated as the ratio of the GFP signal to the PCNA signal detected for the same cell extract. […]

PCNA-Rad27 complex = experiment: as above; format: binding; settings: ELISA of yeast extracts, GFP signal normalized to immobilized PCNA signal; averages of at least 5 independent repeats
From the text: as §1, §2, §3

B1: Rad27 (natural protein, yeast, UniProt P26793 1-382, looked up)
chain: MGIKGLNAIISEHVPSAIRKSDIKSFFGRKVAIDASMSLYQFLIAVRQQDGGQLTNEAGETTSHLMGMFYRTLRMIDNGIKPCYVFDGKPPDLKSHELTKRSSRRVETEKKLAEATTELEKMKQERRLVKVSKEHNEEAQKLLGLMGIPYIIAPTEAEAQCAELAKKGKVYAAASEDMDTLCYRTPFLLRHLTFSEAKKEPIHEIDTELVLRGLDLTIEQFVDLCIMLGCDYCESIRGVGPVTALKLIKTHGSIEKIVEFIESGESNNTKWKIPEDWPYKQARMLFLDPEVIDGNEINLKWSPPKEKELIEYLCDDKKFSEERVKSGISRLKKGLKSGIQGRLDGFFQVVPKTKEQLAAAAKRAQENKKLNKNKNKVTKGRR
notes: Rad27 (endonuclease), yeast; also called pBD-Rad27; source: yeast two-hybrid fusion (pBD-GAL4, strain YRG2)
pol30-Rad30E9
  fold change in affinity relative to WT PCNA (Y2H generation time): 0.5 fold
pol30-Rad30E2
  fold change in affinity relative to WT PCNA (Y2H generation time): 0.4 fold
pol30-Rad27L2
  fold change in affinity relative to WT PCNA (Y2H generation time): 1.5 fold
pol30-Rad27E31
  fold change in affinity relative to WT PCNA (Y2H generation time): 1.5 fold

B2: pol30-Rad30E2: PCNA mutant evolved for Rad30, IDCL sequence DDDWDFLKILEL (protein)
chain: MLEAKFEEASLFKRIIDGFKDCVQLVNFQCKEDGIIAQAVDDSRVLLVSLEIGVEAFQEYRCDHPVTLGMDLTSLSKILRCGNNTDTLTLIADNTPDSIILLFEDTKKDRIAEYSLKLMDDDWDFLKILELQYDSTLSLPSSEFSKIVRDLSQLSDSINIMITKETIKFVADGDIGSGSVIIKPFVDMEHPETSIKLEMDQPVDLTFGAKYLLDIIKGSSLSDRVGIRLSSEAPALFQFDLKSGFLQFFLAPKFNDEE
modifications: left off: Gal4 activation domain, end not stated, kept
PCNA-Rad30 complex
  increase in PCNA-Rad30 complex formation relative to the POL30 WT strain: 70%

B3: pol30-Rad27E6: PCNA mutant evolved for Rad27, IDCL sequence DGDYDILKIREL (protein)
chain: MLEAKFEEASLFKRIIDGFKDCVQLVNFQCKEDGIIAQAVDDSRVLLVSLEIGVEAFQEYRCDHPVTLGMDLTSLSKILRCGNNTDTLTLIADNTPDSIILLFEDTKKDRIAEYSLKLMDGDYDILKIRELQYDSTLSLPSSEFSKIVRDLSQLSDSINIMITKETIKFVADGDIGSGSVIIKPFVDMEHPETSIKLEMDQPVDLTFGAKYLLDIIKGSSLSDRVGIRLSSEAPALFQFDLKSGFLQFFLAPKFNDEE
modifications: left off: Gal4 activation domain, end not stated, kept
PCNA-Rad27 complex
  increase in PCNA-Rad27 complex formation relative to the POL30 WT strain: 17%
